Patent US10234390

Experiments:
[1] = tested on: T1, fluorogenic MMP peptide substrate [Dabcyl-Gaba-Pro-Gln-Gly-Leu-Glu(EDANS)-Ala-Lys-NH2]
T1 sequence: XXPQGLXAK

[2] = target: T2, fluorogenic MMP peptide substrate [Dabcyl-Gaba-Pro-Gln-Gly-Leu-Glu(EDANS)-Ala-Lys-NH2] (not fully specified)
T2 chain: XXPQGLXAK

[3] = target: T3, Sortase A substrate Dnp-LPETG-(K-FITC)-NH2
T3 chain: LPETGK

MMP-9
EDANS fluorescence intensity [1]: The fluorescence intensity of EDANS cleaved by MMP-9 bound with MNP-MMP9Ab

B1: Recombinant human MMP-1 (R&D Systems), activated with APMA (protein)
chain: FVLTEGNPRWEQTHLTYRIENYTPDLPRADVDHAIEKAFQLWSNVTPLTFTKVSEGQADIMISFVRGDHRDNSPFDGPGGNLAHAFQPGPGIGGDAHFDEDERWTNNFREYNLHRVAAHELGHSLGLSHSTDIGALMYPSYTFSGDVQLAQDDIDGIQAIYGRSQNPVQPIGPQTPKACDSKLTFDAITTIRGEVMFFKDRFYMRTNPFYPEVELNFISVFWPQLPNGLEAAYEFADRDEVRFFKGNKYWAVQGQNVLHGYPKDIYSSFGFPRTVKHIDAALSEENTGKTYFFVANKYWRYDEYKRSMDPGYPKMIAHDFPGIGHKVDAVFMKDGFFYFFHGTRQYKFDPKTKRILTLQKANSWFNCRKN
EDANS emission at 446.5 nm from peptide-functionalised pSiRM [2]: emission at 446.5 nm was observed
EDANS emission under confocal microscope (microcontact-printed peptide) [2]: The lighter colour (blue) is the colour of EDANS emission confirming the cleavage of the MMP substrate
EDANS fluorescence intensity at different incubation times (1.2×10^-7 M MMP-1) [2]: After 5 min of incubation, a significant fluorescence emission indicating the presence of MMP-1 was already detectable ... then plateaued at 15 min incubation time
limit of detection (EDANS fluorescence after 15 min incubation) [2]: the calculated LOD was 7.5×10^-19 M
shift of the resonance cavity dip (IRS) [2]: A small blue shift (Δλ=0.5 nm) observed by IRS after incubation with MMP-1

B2: Sortase A enzyme (protein)
chain: QAKPQIPKDKSKVAGYIEIPDADIKEPVYPGPATPEQLNRGVSFAEENESLDDQNISIAGHTFIDRPNYQFTNLKAAKKGSMVYFKVGNETRKYKMTSIRDVKPTDVGVLDEQKGKDKQLTLITCDDYNEKTGVWEKRKIFVATEVK
FITC fluorescence emission (1 µg/mL Sortase A, 30 min) [3]: the emission of FITC after the Sortase A substrate cleaved by Sortase A enzyme
FITC fluorescence emission at different contact times [3]: the longer the interaction between Sortase A enzyme and Sortase A substrate the higher emission of the FITC detected ... only until 30 min contact time
FITC fluorescence emission, S. aureus bacterial supernatant (1 h inoculation) [3]: about 47.26 a.u.
FITC fluorescence intensity, 1×10^-4 µg/mL Sortase A in buffer solution [3]: 100.2±22.7 a.u.
FITC fluorescence intensity, wound fluid spiked with 1×10^-4 µg/mL Sortase A, 30 min [3]: about 82.34 a.u.
FITC fluorescence signal at different Sortase A concentrations [3]: this sensing platform still had an obvious signal down to fg/mL of Sortase A concentration
increase of FITC fluorescence intensity on spiking the bacterial supernatant with Sortase A enzyme [3]: increased the fluorescence intensity about 112.19 a.u.
